Experimental data reported in patent publication US20210171652A1 (University of Pennsylvania, published 2021).

B1: KP2-01 Fab/phage clone (anti-Band 3, Wrb) (Fab, V domains shown)
VH: EVQLLESGPGLVKPSETLSLTCAVSGDSISSGLGWSWIRQTPGKGLEWIGYIGGSRGNTNYNPSFKSRVTISRDTSKNQFSLRLSSMTAADTAVYYCARRAPYWGYSYLDYWGQGVLVTVSS
VL: AAELTQSPATLSLSPGETATLSCRASQSIGSSLAWYQQRPGQAPKLLVHSAYFRAAGIPDRFSGSGSRTDFTLTISSLEPEDVGVYHCQQYNDLLPLTFGGGTKVELK
B2: KP2-07 Fab/phage clone (anti-Band 3, Wrb) (Fab, V domains shown)
VH: EVQLLESGPGLVKPSETLSLTCAVSGDSISSGYGWHWIRQVPGRGLEWIGSIGGSRGTTNYNPSLKSRVTISEDTSKNQFSLSLRSVSAADTAVYFCARDSGYSFRYFDFWGQGVLVTVSS
VL: ELVMTQSPATLSLSPGETATLSCRASQSVGSNLAWYQQKPGQAPKLLVHSAYFRATGIPDRFSGSGSRTDFTLTISSLEPEDVGVYHCQQYNDLLPLTFGGGTKVEIN
B3: KP3-05 Fab/phage clone (anti-Band 3, Wrb) (Fab, V domains shown)
VH: EVQLLESGPGLVKPSETLSLTCTVSGSSLSSAYGWNWIRQPPGKGLEWIGSIGGSRDNTNYNPSLKRRVTISKDTSKNQFSLKLKSVTAADTAVYYCAQRGAYGYSYFDYWGQGVLVAVSS
VL: AAELTQSPATLSLSPGETATLSCRASQSVGSSLAWYQQKPGQAPKLLVHSAYFRATGIPDRFSGSGSRTDFTLTISSLEPEDVGVYHCHQYNDLLPLTFGGGTKVEIK
B4: KP2-04 Fab/phage clone (anti-Band 3, Wrb) (Fab, V domains shown)
VH: EVQLLESGPGLVKPSETLSLTCAVSGYSLSSAYGWNWIRQSPGKGLEWIGSIGGSRDNVNYNPSLKRRVTISKDTSTNHFSLRLSSVTAADTAVYYCVRRATYGNSYFDSWGQGVQVTVSS
VL: ELTLTQSPATLSLSPGETATLSCRASQSVGSHLAWYQQKPGQAPKLLVHSAYFRATGIPDRFSGSGSRTDFTLTISSLEPEDVGVYHCQQYNDLLPLTFGGGTKVEIK
B5: KP2-08 Fab/phage clone (anti-Band 3, Wrb) (Fab, V domains shown)
VH: EVQLLESGPGLVKPSETLSLTCAVSGYSISSGYGWNWIRQPPGKGLEWIGSIGGSRDNTNYNPSLKSRVTLSKDTSKNHFSLRLRSVTAADTAVYYCARDGGYGSRYMDSWGQGVLVAVSS
VL: AAELTQSPATLSLSPGEAATLSCRASQSIGTSLAWYQQKPGQAPRLLVHSAYFRATGIADRFSGSGSRTDFTLTISSLEPEDVGVYYCQQYNDLLPLTFGGGTKVEIK
B6: KP2-02 Fab/phage clone (anti-Band 3, Wrb) (Fab, V domains shown)
VH: EVQLLESGPGLVKPSETLSLTCAVSGGSLSGGYDWSWIRQSSRKGLEWIGYIYDSRWTTNYNPSLKKRVTISIDTSKNQFSLNLKSVTAADTAVYYCARRGGYGASYFDLWGQGVLVTVSS
VL: AAELTQSPATLSLFPGETATLSCRASQSIGSHLAWYQQKPGQAPKLLVHSVSFRATGIPDRFRGSGSRTDFTLTISSLEPEDVGVYHCQQYNDLLPLTFGGGTKVEIK
B7: KP3-15 Fab/phage clone (anti-Band 3, Wrb) (Fab, V domains shown)
VH: EVQLLESGPGLVKPSETLSLTCTVSGSSLSSAYGWNWIRQPPGKGLEWIGSIGGNRDNTNYNPSLKRRVTISKDTSKNQFSLKLKSVTAADTAVYYCAQRGAYGYSYFDYWGQGVLVAVSS
VL: AAELTQSPATLSVSPGEAATLSCRASQTVGRNLAWYQQKPGQAPKLLVHSAHFRATGIPDRFSGSGSGTDFTLTISSLEPEDAGIYHCQQYNDLLPLTFGGGTKVEIK
B8: KP3-13 Fab/phage clone (anti-Band 3, Wrb) (Fab, V domains shown)
VH: EVQLLESGPGLVRPSETLSLTCAVSGGSLSGGYDWSWIRQSPRKGLEWIGYIYDSRGTTNYNPSLKRRVTISIDTSKNQFSLNLKSVTAADTAVYYCARRGGYGASYFDLWGQGVLVTVSS
VL: AAELTQSPATLSLSPGETATLSCRASQSVGSNLAWYQQKPGQAPKLLVHSASVRATGIPDRFSGSGSRTDFTLTISSLEPEDVGVYHCQQYNDFFPLTFGGGTKVEIK
B9: KP3-18 Fab/phage clone (anti-Band 3, Wrb) (Fab, V domains shown)
VH: EVQLLEWGPGLVKPSETLSLTCAVSGYSLSSAYGWNWIRQSPGKGLEWIGSIGGSRDNVNYNPSLKRRVTISKDTSTNHFSLRLSSVTAADTAVYYCVRRATYGNSYFDSWGQGVQVTVSS
VL: ELTLTQSPATLSLSPGETATLSCRASQSVGSYLAWYQQKPGQAPKLLVHSAHFRATGIPDRFSGSGSRTDFTLTISSLEPEDVGVYHCQQYNDLLPLTFGGGTKVEIK
B10: KP3-16 Fab/phage clone (anti-Band 3, Wrb) (Fab, V domains shown)
VH: EVQLLESGPGLVKPSETLSLTCTVSGSSLSSAYGWNWIRQPPGKGLEWIGSIGGSRDNTNYNPSLKRRVTISKDTSKNQFSLKLKSVTAADTAVYYCAQRGAYGYSYFDYWGQGVLVAVSS
VL: AAELTQSPATLSLSPGETATLSCRASQSLGSRLAWYQQKPGQAPRLLIYGASTRATGIPDRFSGSGSRTDFTLTISSLEPEDVGVYHCQQYNDFLPLTFGGGTKVEIK
B11: KP2-06 Fab/phage clone (anti-Band 3, Wrb) (Fab, V domains shown)
VH: EVQLLESGPGLVKPSETLSLTCTVSGSSLSSAYGWNWIRQPPGKGLEWIGSIGGSRDNTNYNPSLKRRVTISKDTSKNQFSLKLKSVTAADTAVYYCAQRGAYGYSYFDYWGQGVLVAVSS
VL: AAELTQSPATLSLSPGETATLSCRASQSVGSSLAWYQQKPGQAPKLLVHSISVRATGIPDRFSGSGSRTDFTLTITSLEPEDVGVYHCQQYNDFFPLTFGGGTKVEIK
B12: KP2-09 Fab/phage clone (anti-Band 3, Wrb) (Fab, V domains shown)
VH: EVQLLESGPGLVRPSETLSLTCAVSGYSISSGYGWHWIRQPPGKGLESLGYIGGSRGNTNYNPSLKSRVTISTDTSKNQFSLKLRSVTAADTAVYYCARDSGYNTRYFDYWGQGVLVTVSS
VL: AAELTQSPATLSLSPGERATLSCRASQSVGSRLAWYQQKPGQAPRLLIYGASSRATGIPDRFSGSGSRTDFTLTISSLEPEDVGVYHCQQYNDLLPLTFGGGTKVEIK
B13: KP2-11 Fab/phage clone (anti-Band 3, Wrb) (Fab, V domains shown)
VH: EVQLQLPGPGLVKPSETLSLTCTVSGSSLSSAYGWNWIRQPPGKGLEWIGSIGGSRDNTNYNPSLKRRVTISKDTSKNQFSLKLKSVTAADTAVYYCAQRGAYGYSYFDYWGQGVLVAVSS
VL: ELTLTQSPATLSLSPGETATLSCRASQSLGSRLAWYQQKPGQPPRLLIYGASTRATGIPDRFSGSGSRTDFTLTISSLEPEDVGVYHCQQYNDFPPLTFGGGTKVEIK
B14: KP3-08 Fab/phage clone (anti-Band 3, Wrb) (Fab, V domains shown)
VH: EVQLLESGPGLVKPSETLSLTCTVSGSSLSSAYGWNWIRQPPGKGLEWIGSIGGSRDNTNYNPSLKRRVTISKDTSKNQFSLKLKSVTAADTAVYYCAQRGAYGYSYFDYWGQGVLVAVSS
VL: ELTLTQSPATLSLSPGETATLSCRASQSLGGRLAWYQQKPGQAPRLLIYGASTRATGIPDRFSGSGSRTEFTLTIAGLEPEDVGVYHCQQYNDFLPLTFGGGTKVEIK
B15: KP3-02 Fab/phage clone (anti-Band 3, Wrb) (Fab, V domains shown)
VH: EVQLLESGPGLVRPSETLSLTCAVSGYSISSGYGWHWIRQPPGKGLESLGYIGGSRGNTNYNPSLKSRVTISTDTSKNQFSLKLRSVTAADTAVYYCARDSGYNTRYFDYWGQGVLVTVSS
VL: AAELTQSPATLSLSPGETATLSCRASQSVGSNLAWYQQKPGQAPKLLVHSAYFRATGIPDRFSGSGSRTDFTLTISSLEPEDVGVYHCQQYNDLLPLTFGGGTKVEIK

Molecular target: T1, Band 3 / glycophorin A (Wright b, Wrb epitope) on human red blood cells (human, UniProt P02724 20-150)
T1 construct: whole, on cells; also called Band3/GPA; AE1
T1 sequence 1: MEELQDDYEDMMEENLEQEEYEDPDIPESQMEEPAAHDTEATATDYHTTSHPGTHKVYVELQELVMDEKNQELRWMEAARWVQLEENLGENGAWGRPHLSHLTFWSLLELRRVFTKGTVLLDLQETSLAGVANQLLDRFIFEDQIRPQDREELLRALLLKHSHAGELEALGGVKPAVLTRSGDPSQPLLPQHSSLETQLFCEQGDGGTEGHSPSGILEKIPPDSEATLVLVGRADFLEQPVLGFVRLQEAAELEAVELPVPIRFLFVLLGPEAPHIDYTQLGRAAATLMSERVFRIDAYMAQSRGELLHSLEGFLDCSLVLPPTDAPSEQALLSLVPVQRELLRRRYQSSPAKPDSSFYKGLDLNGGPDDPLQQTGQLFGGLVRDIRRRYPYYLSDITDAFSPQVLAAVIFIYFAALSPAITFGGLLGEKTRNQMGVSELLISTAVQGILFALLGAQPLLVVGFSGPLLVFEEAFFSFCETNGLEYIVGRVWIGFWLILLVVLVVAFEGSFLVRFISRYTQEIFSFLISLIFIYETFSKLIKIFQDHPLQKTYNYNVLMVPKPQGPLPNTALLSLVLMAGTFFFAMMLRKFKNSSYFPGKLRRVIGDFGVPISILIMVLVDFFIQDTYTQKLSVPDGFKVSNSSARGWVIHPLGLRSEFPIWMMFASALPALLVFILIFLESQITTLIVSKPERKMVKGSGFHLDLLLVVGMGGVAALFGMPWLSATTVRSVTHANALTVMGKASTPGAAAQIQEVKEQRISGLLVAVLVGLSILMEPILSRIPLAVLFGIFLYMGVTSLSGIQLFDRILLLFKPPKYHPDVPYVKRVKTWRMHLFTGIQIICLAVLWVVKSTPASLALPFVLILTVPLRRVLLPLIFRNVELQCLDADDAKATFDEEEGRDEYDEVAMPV
T1 sequence 2: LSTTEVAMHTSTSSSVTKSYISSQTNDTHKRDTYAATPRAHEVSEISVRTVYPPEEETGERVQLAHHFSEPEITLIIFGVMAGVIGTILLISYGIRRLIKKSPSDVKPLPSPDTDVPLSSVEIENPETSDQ
Experiment: Fab/phage binding assays on human RBCs incl. rare RBC types lacking conserved antigens
Description: An IgG Fab/phage display library was prepared from the peripheral blood lymphocytes of a hyperimmunized macaque using homologous human V-region oligonucleotides (Siegel D L, R. M., Lee H, Blancher A., Production of large repertories of macaque mAbs to human RBCs using phage display. Transfusion, 1999. 39(S10): p. 92S, which is incorporated herein by reference). Fab/phage specific for human RBCs were isolated by panning on intact human RBCs. Monoclonal Fab/phage were grown to produce antibodies for immunoassays and their corresponding DNA was extracted for sequencing. To identify target epitopes, antibodies were screened against RBCs of known serologic phenotypes, including rare cells lacking highly conserved antigens, using standard immunohematologic techniques (Roback, J. D., Technical Manual. 2014: American Association of Blood Banks (AABB), which is incorporated herein by reference.)
Using antibody phage display, we identified non-human-primate Fab antibody fragments to antigenic determinants on human RBCs. By panning phage libraries on human RBCs, we produced a Fab/phage preparation with >10⁷ RBC-specific clones capable of agglutinating human RBCs. By performing binding assays against rare RBC types lacking highly conserved antigens and epitopes, we identified the target antigens of >30 of these clones. At least 34 clones bound the Wright b (Wrb) epitope formed by a Band 3/GPA interaction, present on the RBCs of essentially 100% of the human population. The Wrb epitope, determined by the protein sequence of Band 3, is a site of association between Band 3 with GPA, and GPA expression is simultaneously required for its presence on the membrane (Huang C H, Reid M E, Xie S S, Blumenfeld 00. Human red blood cell Wright antigens: a genetic and evolutionary perspective on glycophorin A-band 3 interaction. Blood. 1996; 87(9):3942-3947). At least 3 other clones bound to a highly-conserved epitope Rh17(Hr0) on human RhCE protein, also present on essentially 100% of the human population. Both these targets are specific for erythroid lineage (Rojewski M T, Schrezenmeier H, Flegel W A. Tissue distribution of blood group membrane proteins beyond red cells: evidence from cDNA libraries. Transfus Apher Sci.

| Binder | binding result |
| --- | --- |
| B1 | binds |
| B2 | binds |
| B3 | binds |
| B4 | binds |
| B5 | binds |
| B6 | binds |
| B7 | binds |
| B8 | binds |
| B9 | binds |
| B10 | binds |
| B11 | binds |
| B12 | binds |
| B13 | binds |
| B14 | binds |
| B15 | binds |
